Source: patent publication US20170189519A1

Key:
Settings in all cases: remark: other sources report otherwise
[1] = biological target: NY_s127H1-t2-cl18long (influenza A virus H1N1 A/New York/629/95)
[2] = biological target: Tex_s127H1-t2-cl18long (influenza A virus H1N1 A/Texas/UR06-0526/07)
[3] = biological target: 101D4 (influenza A H1N1 A/Brisbane/59/2007); experiment: ELISA, coated CR6261, P. pastoris medium
[4] = biological target: 115A1 (influenza A H1N1 A/Brisbane/59/2007); experiment: ELISA, coated CR6261, P. pastoris medium
[5] = biological target: 123E2 (influenza A H1N1 A/Brisbane/59/2007); experiment: ELISA, coated CR6261, P. pastoris medium
[6] = biological target: 127A7 (influenza A H1N1 A/Brisbane/59/2007); experiment: ELISA, coated CR6261, P. pastoris medium
[7] = biological target: 127H1 (influenza A H1N1 A/Brisbane/59/2007); experiment: ELISA, coated CR6261, P. pastoris medium
[8] = biological target: 13185 (influenza A H1N1 A/Brisbane/59/2007); experiment: ELISA, coated CR6261, P. pastoris medium
[9] = biological target: 131D5 (influenza A H1N1 A/Brisbane/59/2007); experiment: ELISA, coated CR6261, P. pastoris medium
[10] = biological target: 134A4 (influenza A H1N1 A/Brisbane/59/2007); experiment: ELISA, coated CR6261, P. pastoris medium
[11] = biological target: 134H10 (influenza A H1N1 A/Brisbane/59/2007); experiment: ELISA, coated CR6261, P. pastoris medium
[12] = biological target: 137C11 (influenza A H1N1 A/Brisbane/59/2007); experiment: ELISA, coated CR6261, P. pastoris medium
[13] = biological target: 137C5 (influenza A H1N1 A/Brisbane/59/2007); experiment: ELISA, coated CR6261, P. pastoris medium
[14] = biological target: 145E7 (influenza A H1N1 A/Brisbane/59/2007); experiment: ELISA, coated CR6261, P. pastoris medium
[15] = biological target: 145E8 (influenza A H1N1 A/Brisbane/59/2007); experiment: ELISA, coated CR6261, P. pastoris medium
[16] = biological target: 148D5 (influenza A H1N1 A/Brisbane/59/2007); experiment: ELISA, coated CR6261, P. pastoris medium
[17] = biological target: 171E5 (influenza A H1N1 A/Brisbane/59/2007); experiment: ELISA, coated CR6261, P. pastoris medium
[18] = biological target: 174G3 (influenza A H1N1 A/Brisbane/59/2007); experiment: ELISA, coated CR6261, P. pastoris medium
[19] = biological target: 181H9 (influenza A H1N1 A/Brisbane/59/2007); experiment: ELISA, coated CR6261, P. pastoris medium
[20] = biological target: 182C6 (influenza A H1N1 A/Brisbane/59/2007); experiment: ELISA, coated CR6261, P. pastoris medium
[21] = biological target: 182G8 (influenza A H1N1 A/Brisbane/59/2007); experiment: ELISA, coated CR6261, P. pastoris medium
[22] = biological target: 187C6 (influenza A H1N1 A/Brisbane/59/2007); experiment: ELISA, coated CR6261, P. pastoris medium
[23] = biological target: 191C8 (influenza A H1N1 A/Brisbane/59/2007); experiment: ELISA, coated CR6261, P. pastoris medium
[24] = biological target: 193B6 (influenza A H1N1 A/Brisbane/59/2007); experiment: ELISA, coated CR6261, P. pastoris medium
[25] = biological target: 199F3 (influenza A H1N1 A/Brisbane/59/2007); experiment: ELISA, coated CR6261, P. pastoris medium
[26] = biological target: 213C11 (influenza A H1N1 A/Brisbane/59/2007); experiment: ELISA, coated CR6261, P. pastoris medium
[27] = biological target: 218G11 (influenza A H1N1 A/Brisbane/59/2007); experiment: ELISA, coated CR6261, P. pastoris medium
[28] = biological target: 234C5 (influenza A H1N1 A/Brisbane/59/2007); experiment: ELISA, coated CR6261, P. pastoris medium
[29] = biological target: 239D2 (influenza A H1N1 A/Brisbane/59/2007); experiment: ELISA, coated CR6261, P. pastoris medium
[30] = biological target: 243D6 (influenza A H1N1 A/Brisbane/59/2007); experiment: ELISA, coated CR6261, P. pastoris medium
[31] = biological target: 244B8 (influenza A H1N1 A/Brisbane/59/2007); experiment: ELISA, coated CR6261, P. pastoris medium
[32] = biological target: 275G3 (influenza A H1N1 A/Brisbane/59/2007); experiment: ELISA, coated CR6261, P. pastoris medium
[33] = biological target: 301F11 (influenza A H1N1 A/Brisbane/59/2007); experiment: ELISA, coated CR6261, P. pastoris medium
[34] = biological target: 304G11 (influenza A H1N1 A/Brisbane/59/2007); experiment: ELISA, coated CR6261, P. pastoris medium
[35] = biological target: 307A10 (influenza A H1N1 A/Brisbane/59/2007); experiment: ELISA, coated CR6261, P. pastoris medium

B1: CR6261 (antibody, V domains shown)
VH: EVQLVESGAEVKKPGSSVKVSCKASGGPFRSYAISWVRQAPGQGPEWMGGIIPIFGTTKYAPKFQGRVTITADDFAGTVYMELSSLRSEDTAMYYCAKHMGYQVRETMDVWGKGTTVTVSS
VL: QSVLTQPPSVSAAPGQKVTISCSGSSSNIGNDYVSWYQQLPGTAPKLLIYDNNKRPSGIPDRFSGSKSGTSATLGITGLQTGDEANYYCATWDRRPTAYVVFGGGTKLTVLG
EC50 [1]: 0.455 µg/mL
EC50 [2]: 0.369 µg/mL
CR6261 binding signal [3]: 337000
CR6261 binding signal [4]: 1.18e+06
CR6261 binding signal [5]: 477000
CR6261 binding signal [6]: 233000
CR6261 binding signal [7]: 800000
CR6261 binding signal [8]: 844000
CR6261 binding signal [9]: 345000
CR6261 binding signal [10]: 456000
CR6261 binding signal [11]: 592000
CR6261 binding signal [12]: 417000
CR6261 binding signal [13]: 296000
CR6261 binding signal [14]: 132000
CR6261 binding signal [15]: 212000
CR6261 binding signal [16]: 329000
CR6261 binding signal [17]: 880000
CR6261 binding signal [18]: 491000
CR6261 binding signal [19]: 311000
CR6261 binding signal [20]: 92900
CR6261 binding signal [21]: 400000
CR6261 binding signal [22]: 345000
CR6261 binding signal [23]: 309000
CR6261 binding signal [24]: 207000
CR6261 binding signal [25]: 329000
CR6261 binding signal [26]: 667000
CR6261 binding signal [27]: 959000
CR6261 binding signal [28]: 278000
CR6261 binding signal [29]: 570000
CR6261 binding signal [30]: 132000
CR6261 binding signal [31]: 274000
CR6261 binding signal [32]: 115000
CR6261 binding signal [33]: 117000
CR6261 binding signal [34]: 111000
CR6261 binding signal [35]: 115000
